Experiment [1] addresses human RAGE-Fc fusion protein (human) (UniProt Q15109). The experiment in a line: ligand competition ELISA, panel Blocks hRAGE-Fc interaction with S100-A; blocked ligand S100-A. On the technique in general: An ELISA detects its analyte on a solid surface through an enzyme-linked reagent.
The target is the same in experiment [2]. Description: ligand competition ELISA, panel Blocks hRAGE-Fc interaction with HMGB1; blocked ligand HMGB1.
Experiment [3] deals with soluble human streptavidin-tagged RAGE (human) (UniProt Q15109). The experiment in a line: BIACORE capture assay, antibody on CM5 chip, hRAGE-SA 0-100 nM in solution. In general terms: In SPR one partner is held on a chip, and binding of the other changes the refractive index at the surface.
For experiment [4], the target named is human RAGE-Fc fusion protein (human) (UniProt Q15109). Description: antibody competition ELISA on hRAGE-Fc; competitor biotinylated XT-M4.
For experiment [5] the target is unchanged. The experiment in a line: ligand competition ELISA, panel Blocks hRAGE-Fc interaction with A-beta; blocked ligand amyloid beta 1-42 peptide.
Experiment [6] deals with cynomolgus monkey RAGE (cynomolgus monkey (Macaca fascicularis)). Description: cell-based ELISA, 293 cells transfected with cynomolgus monkey RAGE.
The target in experiment [7] is human RAGE-Fc fusion protein (human) (UniProt Q15109). The experiment in a line: ligand competition ELISA, panel Blocks hRAGE-Fc interaction with S100-B; blocked ligand S100-B.
The target in experiment [8] is rhICAM-1-Fc (human) (UniProt P05362). The experiment in a line: direct binding ELISA, receptor coated at 1 µg/ml, antibody at 20 µg/ml.
rhICAM-1-Fc (human), sequence (P05362 28-480): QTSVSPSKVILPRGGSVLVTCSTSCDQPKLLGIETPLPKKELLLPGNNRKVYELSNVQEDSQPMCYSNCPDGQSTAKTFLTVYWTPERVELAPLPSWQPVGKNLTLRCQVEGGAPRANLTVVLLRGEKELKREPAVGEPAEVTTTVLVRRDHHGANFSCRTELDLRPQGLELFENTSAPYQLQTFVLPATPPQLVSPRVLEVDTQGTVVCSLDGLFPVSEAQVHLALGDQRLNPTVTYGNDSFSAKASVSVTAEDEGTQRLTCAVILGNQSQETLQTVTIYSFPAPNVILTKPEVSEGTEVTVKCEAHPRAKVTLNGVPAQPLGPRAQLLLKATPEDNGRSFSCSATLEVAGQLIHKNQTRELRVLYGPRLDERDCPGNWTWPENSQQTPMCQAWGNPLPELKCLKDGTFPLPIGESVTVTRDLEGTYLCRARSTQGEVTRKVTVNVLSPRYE
Experiment [9] deals with mLox1-Fc (mouse) (UniProt Q9EQ09). The description is as above.
mLox1-Fc (mouse), sequence (Q9EQ09 60-363): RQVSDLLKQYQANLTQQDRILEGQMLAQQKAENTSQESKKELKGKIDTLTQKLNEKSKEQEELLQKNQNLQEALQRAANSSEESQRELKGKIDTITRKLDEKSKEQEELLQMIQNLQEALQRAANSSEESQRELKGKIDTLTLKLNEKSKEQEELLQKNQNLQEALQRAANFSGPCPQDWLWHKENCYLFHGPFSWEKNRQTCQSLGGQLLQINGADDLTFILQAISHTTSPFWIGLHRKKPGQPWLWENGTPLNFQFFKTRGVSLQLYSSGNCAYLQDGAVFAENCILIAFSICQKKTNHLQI
In experiment [10] the target is rhTLR4 (C-terminal His tag) (human) (UniProt O00206). The description is as above.
rhTLR4 (C-terminal His tag) (human), sequence (O00206 24-631 limits assumed): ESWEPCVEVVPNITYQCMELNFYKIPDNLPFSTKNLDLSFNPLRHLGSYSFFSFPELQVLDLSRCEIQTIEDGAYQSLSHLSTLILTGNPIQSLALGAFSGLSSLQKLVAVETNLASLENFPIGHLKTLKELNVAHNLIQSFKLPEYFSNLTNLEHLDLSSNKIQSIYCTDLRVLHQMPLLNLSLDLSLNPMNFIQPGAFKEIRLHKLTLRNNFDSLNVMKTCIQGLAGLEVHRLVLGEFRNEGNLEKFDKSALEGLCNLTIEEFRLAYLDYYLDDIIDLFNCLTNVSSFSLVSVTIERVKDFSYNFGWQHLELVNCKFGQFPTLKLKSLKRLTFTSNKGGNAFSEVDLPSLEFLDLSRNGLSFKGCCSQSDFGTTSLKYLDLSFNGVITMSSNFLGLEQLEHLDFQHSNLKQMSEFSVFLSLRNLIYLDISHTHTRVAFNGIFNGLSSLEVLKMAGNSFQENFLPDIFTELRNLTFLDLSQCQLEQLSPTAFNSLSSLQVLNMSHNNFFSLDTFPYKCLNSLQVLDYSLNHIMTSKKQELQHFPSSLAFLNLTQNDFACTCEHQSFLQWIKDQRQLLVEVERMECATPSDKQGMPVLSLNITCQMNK
Experiment [11] deals with hLox1-Fc (human) (UniProt P78380). Described as above.
In experiment [12] the target is rhVCAM-1 (human) (UniProt P19320). Described as above.
rhVCAM-1 (human), sequence (P19320 25-698 limits assumed): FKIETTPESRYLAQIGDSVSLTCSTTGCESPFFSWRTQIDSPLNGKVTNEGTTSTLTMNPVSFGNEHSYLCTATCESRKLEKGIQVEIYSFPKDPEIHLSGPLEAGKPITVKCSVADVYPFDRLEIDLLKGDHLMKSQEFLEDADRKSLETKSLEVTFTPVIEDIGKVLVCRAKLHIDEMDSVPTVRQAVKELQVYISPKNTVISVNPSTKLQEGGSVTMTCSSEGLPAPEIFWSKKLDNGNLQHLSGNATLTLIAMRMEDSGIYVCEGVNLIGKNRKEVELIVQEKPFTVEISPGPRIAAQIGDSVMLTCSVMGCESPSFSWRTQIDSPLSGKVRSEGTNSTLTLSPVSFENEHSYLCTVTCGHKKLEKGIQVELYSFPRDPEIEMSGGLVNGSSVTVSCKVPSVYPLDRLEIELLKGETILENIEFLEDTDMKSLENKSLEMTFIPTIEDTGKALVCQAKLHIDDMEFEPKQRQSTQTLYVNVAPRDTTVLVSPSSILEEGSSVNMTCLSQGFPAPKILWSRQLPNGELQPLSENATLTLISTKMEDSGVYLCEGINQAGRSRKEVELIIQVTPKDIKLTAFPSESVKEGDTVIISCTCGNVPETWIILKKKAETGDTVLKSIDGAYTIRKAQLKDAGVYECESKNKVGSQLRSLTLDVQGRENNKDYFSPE
Experiment [13] addresses rhNCAM-1 (human) (UniProt P13591). Described as above.
Experiment [14] addresses rhB7-H1-Fc (human) (UniProt Q9NZQ7). Described as above.
For experiment [15], the target named is human RAGE-Fc fusion protein (human) (UniProt Q15109). The description is as above.
Experiment [16] concerns the target murine RAGE-strep tag fusion protein (mouse) (UniProt Q62151). Description: BIACORE capture, SA-Mu RAGE over captured antibody, 1:1 Langmuir global fit, FC3.
Experiment [17] has as its target soluble human streptavidin-tagged RAGE (human) (UniProt Q15109). Description: BIACORE capture, hRAGE-SA over captured antibody, 1:1 Langmuir global fit, FC3.
Experiment [18] deals with murine RAGE-strep tag fusion protein (mouse) (UniProt Q62151). Description: BIACORE capture, SA-Mu RAGE over captured antibody, 1:1 Langmuir global fit, FC4.
murine RAGE-strep tag fusion protein (mouse), sequence (Q62151 other isoform, or with tags, fused parts or gaps): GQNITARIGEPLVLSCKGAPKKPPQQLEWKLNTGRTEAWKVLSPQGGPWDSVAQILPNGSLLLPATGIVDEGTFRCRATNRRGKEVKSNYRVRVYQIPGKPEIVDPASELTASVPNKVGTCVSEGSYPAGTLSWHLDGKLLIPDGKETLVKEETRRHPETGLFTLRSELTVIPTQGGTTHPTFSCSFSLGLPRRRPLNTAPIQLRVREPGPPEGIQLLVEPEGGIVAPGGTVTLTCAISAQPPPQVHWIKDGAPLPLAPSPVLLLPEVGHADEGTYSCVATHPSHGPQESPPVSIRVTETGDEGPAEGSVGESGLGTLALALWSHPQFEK
Experiment [19] has the same target. The experiment in a line: BIACORE capture, SA-Mu RAGE over captured antibody, 1:1 Langmuir global fit, FC2.
For experiment [20], the target named is soluble human streptavidin-tagged RAGE (human) (UniProt Q15109). The experiment in a line: BIACORE capture, hRAGE-SA over captured antibody, 1:1 Langmuir global fit, row Average.
The target in experiment [21] is murine RAGE-strep tag fusion protein (mouse) (UniProt Q62151). Description: BIACORE capture, SA-Mu RAGE over captured antibody, 1:1 Langmuir global fit, row Average.
The target in experiment [22] is human RAGE, full length (human) (UniProt Q15109). The experiment in a line: cell-based ELISA, 293 cells transfected with human RAGE.

rhNCAM-1 (human), sequence (P13591 other isoform, or with tags, fused parts or gaps limits assumed): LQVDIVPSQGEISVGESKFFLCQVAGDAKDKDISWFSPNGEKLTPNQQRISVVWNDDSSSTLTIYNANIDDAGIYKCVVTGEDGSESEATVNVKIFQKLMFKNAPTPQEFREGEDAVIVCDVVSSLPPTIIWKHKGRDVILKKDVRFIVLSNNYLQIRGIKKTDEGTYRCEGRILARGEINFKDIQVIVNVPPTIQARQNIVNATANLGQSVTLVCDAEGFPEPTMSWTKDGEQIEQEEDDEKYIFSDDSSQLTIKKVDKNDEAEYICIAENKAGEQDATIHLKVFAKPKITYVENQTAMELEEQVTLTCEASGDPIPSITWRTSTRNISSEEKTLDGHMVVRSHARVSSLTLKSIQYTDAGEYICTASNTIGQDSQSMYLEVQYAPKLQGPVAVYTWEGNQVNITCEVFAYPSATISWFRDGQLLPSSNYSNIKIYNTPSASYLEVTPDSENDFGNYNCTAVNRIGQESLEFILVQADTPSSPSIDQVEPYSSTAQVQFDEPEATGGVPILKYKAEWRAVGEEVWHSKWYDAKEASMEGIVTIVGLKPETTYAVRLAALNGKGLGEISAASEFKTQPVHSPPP
rhB7-H1-Fc (human), sequence (Q9NZQ7 19-239): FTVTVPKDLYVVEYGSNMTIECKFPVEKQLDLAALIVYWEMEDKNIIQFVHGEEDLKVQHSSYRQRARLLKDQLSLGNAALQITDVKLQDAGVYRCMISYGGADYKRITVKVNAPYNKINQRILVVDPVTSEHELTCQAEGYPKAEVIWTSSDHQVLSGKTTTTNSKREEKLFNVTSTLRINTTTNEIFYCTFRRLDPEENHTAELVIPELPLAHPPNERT

On to “chimeric antibody XT-M4 (from UniProt P01857 1-330)”, for which the IC50 (read off the curve) turned out to be 0.09 µg/mL in [1]; 0.1 µg/mL in [2]; 0.4 µg/mL in experiment [4]; 0.2 µg/mL in [5]; 0.08 µg/mL in experiment [7]. This substance gave a Ka in [3] of 1.77e+08 M⁻¹. Moreover, the Kd (commonly the free concentration of one partner at which half of the binding sites on the other are occupied at equilibrium, for simple one-to-one binding) turned out to be 5.66 nM in experiment [3]; 1.9 nM in [16]; 7.33 nM in [17]; 2 nM in [18]; 1.9 nM in [19]; 7.91 nM in experiment [20]. The substance also returned a Kd in [21] of 1.9 nM. The figures for the EC50 in [6] and in experiment [22] were 1.66 nM and 0.8 nM, respectively. Besides, the OD450 came to 0.004 in experiment [8]; 0.01 in experiment [9]; 0 in [10]; 0.017 in experiment [11]; 0.004 in [12]; 0.006 in experiment [13]. Also, the results for the OD450 in experiment [14] and in experiment [15] were 0.003 and 3.8, respectively.

(Values after patent publication US20070286858A1.)
